In experiment [1] the target is naïve EcHsp60 R264AK266A (Epinephelus coioides (grouper)). The experiment is described as follows: SEC; WT and mutated naïve EcHsp60 purified at 4°C; analytical Superdex 200 Increase 10/300 GL. (In general: In gel filtration, larger molecules generally elute earlier.)
For experiment [2] the target is unchanged. The experiment is described as follows: negative-stain TEM with single particle analysis; purified oligomeric EcHSP60 at 1 mg/ml, 2% uranyl acetate, 2D classification.
Experiment [3] deals with naïve EcHsp60 K266A (Epinephelus coioides (grouper)). In words: SEC; WT and mutated naïve EcHsp60 purified at 4°C; analytical Superdex 200 Increase 10/300 GL.
For experiment [4], the target named is mature Epinephelus coioides mtHsp60 (EcHsp60), without the mitochondrial importing signal (Epinephelus coioides (grouper)). The experiment is described as follows: cross-linking; dimeric EcHsp60 at 0.6 mg/ml, BS^3 0.15 to 0.6 mM, 37°C 30 min, phosphate buffer pH 7.6 with 300 mM NaCl, SDS-PAGE.
Experiment [5] shares this target. The experiment is described as follows: SEC; protein homogenised and purified at room temperature (RT, 25°C); Superdex S200pg 16/600, 25 mM Tris-HCl pH 7.6, 150 mM NaCl, 1 ml/min.
Experiment [6] shares this target. The experiment is described as follows: negative-stain TEM with single particle analysis; purified oligomeric EcHSP60 at 1 mg/ml, 2% uranyl acetate, 2D classification.
The target is the same in experiment [7]. In words: SEC; protein homogenised and purified at 4°C (LT); Superdex S200pg 16/600, 25 mM Tris-HCl pH 7.6, 150 mM NaCl, 1 ml/min.

With “naïve EcHsp60 R264AK266A (natural protein)”, the stoichiometry N in experiment [1] and in experiment [2] was 7 throughout.

As for naïve EcHsp60 K266A (natural protein), the stoichiometry N in experiment [3] came to 7.

As to “mature Epinephelus coioides mtHsp60 (EcHsp60), without the mitochondrial importing signal (natural protein)”, the stoichiometry N in experiment [4] stood at 2; in experiment [5], 7; in experiment [6] it was 7; in experiment [7], 2.

A word on the stoichiometry N: it is the number of molecules, sites or subunits per partner or assembly.

(Values after article PMC10053435.)
